The record followed here is patent publication US7537762B2, “Human monoclonal antibodies to activin receptor-like kinase-1” (Amgen Fremont, Inc., priority 2005, dated 2009).

Experiment [1] has as its target T1, recombinant human ALK-1/Fc fusion protein (hALK-1/Fc) (Homo sapiens, UniProt P37023).
T1 construct: purchased R&D Systems, Inc. 370-AL; host or cells: mouse myeloma cell line
The experiment is described as follows: Avidity by surface plasmon resonance (BIACORE), immobilized hALK-1/Fc. Format: binding. The settings on record: SPR, dissociation monitored 10 minutes.
Description: Avidity measures of purified anti-ALK-1 antibodies by surface plasmon resonance using the BIACORE® 3000 instrument were performed as follows using the manufacturer's protocols.
To perform kinetic analyses, recombinant human ALK-1/Fc fusion protein (hALK-1/Fc) and cynomologus ALK-1/Fc fusion protein (cALK-1/Fc) were immobilized on separate flow cells of a CM5 BIAcore sensor chip using routine amine coupling. […] Deactivation of unreacted N-hydroxysuccinimide esters was performed using 1 M ethanolamine hydrochloride, pH 8.5. Antibody samples in running buffer were prepared at concentrations ranging from 0.125 to 2 nM (a 0 nM solution comprising running buffer alone was included as a zero reference). Samples were randomized and injected in duplicate for 10 minutes each across all 4 flow cells using HBS-EP (10 mM HEPES pH 7.4, 150 mM NaCl, 3 mM EDTA, 0.005% Surfactant P20) as running buffer. […] A flow rate of 25 μL/min was used to determine avidity values. The dissociation of the antibody was monitored for 10 minutes, the surface regenerated by a 12 second injection of 100 mM H3PO4 (25 μL/min). The raw data were processed using the Scrubber (©BioLogic Software) software package and analyzed using the CLAMP (©BioLogic Software) software package. […]

For a further experiment, the target named is T2, monomeric ALK-ECD (Homo sapiens, UniProt P37023).
T2 construct: made in house; host or cells: 293T cells, transient, secreted (pSecTag2/Hygro)
In words: Affinity constants of representative mAbs by SPR (BIACORE), Example 8. Format: binding. The conditions noted are these: mAb immobilized (200-400 RU), monomeric ALK-ECD 3.125-400 nM, different ECD preparation than Example 7.

In experiment [2] the test system is human vessels (human CD-31). In words: Collagen model in human foreskin-SCID chimera mice, human CD-31 staining. Format: in vivo, human foreskin-SCID chimera mouse. The conditions noted are these: 3.0 mg/ml Collagen, no HMVEC, 100 μg/ml id. injection.
Excerpt: Upon arrival from National Disease Research Institute and Cooperative Human Tissue Network, human foreskin pieces were trimmed of unhealthy regions and transferred to RPMI media (CELLGRO®/Mediatech, Cat# MT-15-040-CV supplemented with Penicillin and Streptamycin (GIBCO®/Life Tech, Cat# 15070-063) (add 5 mLs of the pen/strep stock solution into 500 mLs of RPMI). Using a scalpel and cutting in sterile petri dish, the skins were trimmed to an oval shape of approximately 8×13 mm cleaning any ragged ends and connective tissues, and stored on wet ice prior to surgery. The appropriate volume (4 μL/gram of animal) of 100 mg/mL (KeTASET®(ketamine), Fort Dodge Animal Health)/1 mg/mL medetomidine (Pfizer Animal Health-DORMITOR®(medetomidine)) solution was intraperitoneally injected into scid mouse abdomen (i.e., at a 45° angle, under skin but not too deep internally). Once anesthetized, the mice were applied with eye lubricant, a subcutaneuosly injection of Ketoprofen (10 mg/kg, Fort Dodge Animal Health) and hair was shaved over the site of the surgery. […] Complete healing occurred between 21-28 days after which time skins were ready to be inoculated with tumor cells.
The target in experiment [3] is T3, Recombinant human ALK-1/FC chimera (Homo sapiens, UniProt P37023).
T3 construct: purchased R&D Systems, Inc. 370-AL; host or cells: mouse myeloma cell line
The experiment is described as follows: BIACORE cross-competition / epitope binning. The experiment is classed as binding. The conditions noted are these: panel of 14 antibodies, 50 nM, primary/secondary injections. The method, then: Cross-competition experiments were performed using the BIACORE® 3000 instrument (Biacore International AB, Uppsala, Sweden and Piscataway, N.J.), following the manufacturer's protocols.
Recombinant human ALK-1/FC chimera was immobilized onto the dextran layer of a CM5 biosensor chip using amine coupling. Chips were prepared using 10 mM acetate buffer pH 5.0 as the immobilization buffer and a protein density of 940 RU was achieved. Deactivation of unreacted N-hydroxysuccinimide esters was performed using 1 M ethanolamine hydrochloride, pH 8.5.
Purified mAbs were diluted to a concentration of 50 nM in HBS-EP running buffer (0.01 M HEPES pH 7.4, 0.15 M NaCl, 3 mM EDTA, 0.005% Polysorbate 20). A primary antibody was chosen and then injected across the flow cell for 600 seconds at a rate of 10 μL/min. After the injection was complete, a secondary antibody was chosen and injected across the same flow cell for 600 seconds at a rate of 10 μL/min. The sensor surface was regenerated by a 12 second injection of 100 mM H3PO4 (25 μL/min).
After regeneration, the primary antibody was again injected across the flow cell for 600 seconds at a rate of 10 μL/min. […] Threshold values were determined by using the same antibody as both the primary antibody and secondary antibody. […]

Description for monomeric ALK-ECD: Affinity measures (KD and koff) of purified anti-ALK-1 antibodies by surface plasmon resonance using the BIACORE® 3000 instrument were performed as follows using the manufacturer's protocols.
To perform kinetic analyses, affinity-purified mAbs were immobilized onto the dextran layer of a CM5 biosensor chip using amine coupling. Surfaces were prepared using 10 mM acetate buffer pH 5.0 as the immobilization buffer and protein densities of 200-400 RU were achieved. Deactivation of unreacted N-hydroxysuccinimide esters was performed using 1 M ethanolamine hydrochloride, pH 8.5. Samples of monomeric ALK-ECD in running buffer were prepared at concentrations ranging from 3.125-400 nM (a 0 nM solution comprising running buffer alone was included as a zero reference). Samples were randomized and injected in duplicate for 2 minutes each across all 4 flow cells using HBS-EP (10 mM HEPES pH 7.4, 150 mM NaCl, 3 mM EDTA, 0.005% Surfactant P20) as running buffer. […] Dissociation of monomeric ALK-ECD was monitored for 10 minutes, the surface regenerated by a 12 second injection of 100 mM H3PO4 (25 μL/min). The raw data were processed using the Scrubber (©BioLogic Software) software package and analyzed using the CLAMP (©BioLogic Software) software package. The data were fit globally to a simple 1:1 Langmuir binding model.

B1: 1.162.1: human anti-ALK-1 monoclonal antibody; VH SEQ ID NO: 26, VL SEQ ID NO: 28 (antibody, V domains shown)
VH: QVQLQESGPGLVKPSQTLSLICTVSGGSISSGEYYWSWIRQHPGKGLEWIGYIYYSGSTYYNPSLKSRLTISVDTSKNQFSLKLSSVTAADTAVYYCAREGIGAFDIWGQGTMVTVSS
VL: EIVLTQSPGTLSLSPGERATLSCRASQSVSSSYLAWYQQKPGQAPRLLIYGASSRATGIPDRFSGSGSGTDFTLTIIRLDPEDFAVYYCQRYGSSPITFGQGTRLEIK
modifications: Human
As to B1, the hALK-1/Fc koff in experiment [1] turned out to be 1.1e-05 s⁻¹.

B2: 4.72.1: human anti-ALK-1 monoclonal antibody; VH SEQ ID NO: 66, VL SEQ ID NO: 68 (antibody, V domains shown)
VH: QVQLQESGPGLVKPSQTLSLTCTVSGGSISSGEYYWSWIRQHPGKGLEWIGYIFYSGSTYYNPSLKSRVTISLDTSKNQFSLKLSSVTAADTAVYYCARESTDGMDVWGQGTTVTVSS
VL: EIVLTQSPGTLSLSPGERATLSCRASQSVSSSYLAWYQRKPGQAPRLLIYGVSSRATGIPDRFSGSGSGTDFTLTISRLEPEDFAVYYCQQYGSSMITFGQGTRLEIK
modifications: Human
In the experiment with monomeric ALK-ECD, B2 displayed an off-rate of 2.5e-05 s⁻¹ and an on-rate of 32000 M⁻¹ s⁻¹.

B3: 1.14.1: human anti-ALK-1 monoclonal antibody; VH SEQ ID NO: 18, VL SEQ ID NO: 20 (antibody, V domains shown)
VH: QVQLQESGPGLVKPSETLSLTCTVSGGSVSSGDYYWNWIRQPPGKGLEWIGYIYYSGSTNYNPSLKSRVTISVDTSKNQFSLKLSSVTAADTAVYYCAREAVSAFDYWGQGTLVTVSS
VL: EIVLTQSPGTLSLSPGERATLSCRASQSVSSTYLAWHQQKPGQAPRLLIYGVSSRASGVPDRFSGSGSGTDFTLTISRLEPEDFAVYYCQQYGSSPITFGQGTRLEIK
modifications: Human
For the molecule B3, the Human vessel scoring in experiment [2] (4 days of Rx) is given as 44 ± 28 1 × 10^3. Also, the “% of Control (human vessels)” value in experiment [2] (4 days, control = isotype control antibody) amounted to 59%.

B4: 1.11.1: human anti-ALK-1 monoclonal antibody; VH SEQ ID NO: 10, VL SEQ ID NO: 12 (antibody, V domains shown)
VH: QVQLVESGGGVVQPGRSLRLSCAASGFTFSSHGMYWVRQAPGKGLEWVAAIWYDGSNKYYADSVKGRFTISRDNSKNTLYLQMNSLRAEDTAVYYCARDQEQWPDVFDIWGQGTMVTVSS
VL: DIQMTQSPSSLSASVGDRVTITCRASQGIRNYLAWFQQKPGKAPKSLIYGASSLQSGVPSKFSGSGSGTDFTLTISSLQPEDFATYYCQQYNSYPLTFGGGTKVEIK
modifications: Human
With B4, the epitope bin entry in experiment [3] is “in one bin”.
